Target: T1, human transferrin (human, UniProt P02787 20-698)
T1 construct: The assay paragraphs say only 'transferrin (Biogenesis)'; also called transferrin (Biogenesis); antigen
Experiment: ELISA, transferrin-coated plate, silk gland extract, anti-mouse Ig-HRP detection
Experimental: Measurement of the activity of a recombinant antibody against an antigen by enzyme-linked immunosorbent assay (ELISA) was carried out by the following procedure. […] This was homogenized using a glass homogenizer and centrifuged at 14,000 rpm for 20 minutes, and then the supernatant was diluted five times (40 mg/ml) and ten times ([…]) in Tris buffer. These samples and the undiluted sample (original concentration: 200 mg/ml) were used as samples for ELISA measurement. Furthermore, similar procedures were used to prepare samples of the Ser1GAL4 strain silkworms for ELISA measurement as a negative control. 100 μl of the samples for ELISA measurement thus prepared were dispensed into a microtiter plate (NUNC) presensitized with 100 μg/well of transferrin (Biogenesis), and the plate was shaken at room temperature for two hours. Next, the ELISA measurement samples were removed from the wells, and the wells were washed three times with 200 μl of PBS-T. Into each well, 100 μl of a solution prepared in advance by diluting a rabbit anti-mouse Ig-HRP-labeled antibody 100-fold with PBS (150 mM NaCl, 10 mM phosphate buffer, pH 7.4) was dispensed, and the plate was shaken at room temperature for six hours. […] After that, the absorbance at 450 nm was measured using a model 550 microplate reader (BioRad).

T1 sequence (P02787 20-698 limits assumed): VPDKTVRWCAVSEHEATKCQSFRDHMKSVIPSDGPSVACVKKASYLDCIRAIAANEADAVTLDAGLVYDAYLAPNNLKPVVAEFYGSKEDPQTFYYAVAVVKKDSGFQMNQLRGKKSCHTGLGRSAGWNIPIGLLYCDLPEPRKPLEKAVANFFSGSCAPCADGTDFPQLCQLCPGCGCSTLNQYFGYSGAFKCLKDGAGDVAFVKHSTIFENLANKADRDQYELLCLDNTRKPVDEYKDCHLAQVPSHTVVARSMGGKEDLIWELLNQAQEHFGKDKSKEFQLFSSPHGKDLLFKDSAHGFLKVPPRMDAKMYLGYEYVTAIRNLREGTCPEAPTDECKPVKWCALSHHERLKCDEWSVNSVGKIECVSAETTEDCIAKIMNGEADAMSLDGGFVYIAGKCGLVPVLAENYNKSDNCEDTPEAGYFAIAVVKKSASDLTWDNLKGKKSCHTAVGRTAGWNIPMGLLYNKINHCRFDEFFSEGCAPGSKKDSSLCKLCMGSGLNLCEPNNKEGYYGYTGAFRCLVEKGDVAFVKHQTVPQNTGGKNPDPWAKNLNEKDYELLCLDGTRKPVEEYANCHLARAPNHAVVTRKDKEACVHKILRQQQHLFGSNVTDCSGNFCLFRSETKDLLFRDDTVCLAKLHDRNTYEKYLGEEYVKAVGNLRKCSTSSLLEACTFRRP

binding result: binds
B1: scFv antibody from a mouse anti-human transferrin antibody (anti-transferrin scFv antibody) (scFv)
scFv: LEVQLQESGPDLVKPSQSLSLTCTVTGYSITSGYSWHWIRQFPENKLEWLGYIHSSGATNYSPSLKSRFSITRDTSKNQFFLQLNSVTTEDTATYYCARDGYSPPYAMDYWGQGTTVTVSSGGGGSGGGGSGGGGSDIELTQSPSSLAVSVGEKVTMTCKSSQSLLYSTNQKNYLAWYQQKPGQSPKLLIYWASTRESGVPDRFTGSGSGTDFTLTISSVKAEDLSVYYCQQYYSYPPTFGSGTKLEIK
notes: The signal piece is left out here as a secretion signal; Tested as a crude middle silk gland extract of Ser1GAL4/UASFvaTf silkworms, not purified; also called aTf; FvaTf

Reference: patent US20110021757A1 (NATIONAL INSTITUTE OF AGROBIOLOGICAL SCIENCES, published 2011)
